Positions count from the first letter of the chain named. One block for each binder: values may come before it.
Experiments:
[1] = biological target: mouse CD137, cell-surface (mouse, UniProt P20334 24-256); experiment: cell-based or functional assay
[2] = biological target: T1, human CD137, cell-surface (human, UniProt Q07011 24-255); experiment: cell-based or functional assay
[3] = biological target: T2, cynomolgus CD137, cell-surface (cynomolgus, UniProt Q07011 24-255 (human entry)); experiment: flow cytometry on DO11.10.cCD137
T2 construct: also called DO11.10.cCD137; CD137 on cynomolgus T cells
T2 chain: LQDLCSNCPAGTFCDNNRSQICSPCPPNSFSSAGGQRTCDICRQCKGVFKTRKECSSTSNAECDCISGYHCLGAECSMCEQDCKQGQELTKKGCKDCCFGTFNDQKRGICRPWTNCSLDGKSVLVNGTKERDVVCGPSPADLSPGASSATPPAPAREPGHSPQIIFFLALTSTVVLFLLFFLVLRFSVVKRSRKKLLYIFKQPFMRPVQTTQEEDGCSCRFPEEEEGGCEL
Method: (§1) Non-specific binding was also assessed by testing binding to DO11.10 cells lacking CD137 expression.
(§2) Briefly, DO11.10, DO11.10.hCD137 or DO11.10.cCD137 suspensions were prepared in FACS buffer (DPBS containing (Gibco, 14190-094) containing 0.5% BSA (Sigma, A7906)) and seeded at 1×10⁵ cell/well in 100 μl in round bottomed 96-well plates (VWR, 734-1797). […] The washed cells were resuspended in the diluted antibody mixture, incubated at 4° C. for 30 minutes, and then washed once in FACS buffer. […] Dead cells were excluded and the fluorescence in the APC channel (638 nm 660/20) was measured. The geometric mean fluorescence intensity (GMFI) values were plotted vs the log concentration of antibody and the resulting curves were fitted using the log (agonist) vs response equation in GraphPad Prism.

[4] = biological target: T1, human CD137, cell-surface; experiment: flow cytometry on DO11.10.hCD137; DO11.10 cells overexpressing human CD137 (DO11.10.hCD137)
Method: as §1, §2

[5] = biological target: T3, FcgRIIB on CHO cells (UniProt P31994 43-310); experiment: flow cytometry on CHO cells over-expressing FcγRIIB, anti-human IgG AF-488 detection
T3 construct: whole, on cells; also called CHO.FcγRIIB
T3 sequence (looked up): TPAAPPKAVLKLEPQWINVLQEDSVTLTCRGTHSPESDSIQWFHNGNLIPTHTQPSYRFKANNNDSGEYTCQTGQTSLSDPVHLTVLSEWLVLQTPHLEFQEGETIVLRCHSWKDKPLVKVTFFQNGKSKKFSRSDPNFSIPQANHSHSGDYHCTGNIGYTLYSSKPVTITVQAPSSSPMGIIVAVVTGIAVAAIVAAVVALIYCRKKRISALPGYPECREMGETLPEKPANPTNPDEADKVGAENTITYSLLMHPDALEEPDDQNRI
Text: (§3) However, in order to circumnavigate potential off-target effects such as systemic CD137 activation due to crosslinking by Fcγ receptor binding and to decrease the possibility of inducing ADCC of immune cells, for example T cells, that express both targets, it was decided to decrease the Fcγ receptor binding ability of the anti-human CD137/PD-L1 mAb² by introduction of a LALA mutation in the CH2 domain (see Example 3.2 for details on the LALA format).
(§4) Briefly, CHO.FcγRIIA.131H, […], CHO.FcγRIIIA.158F, CHO.FcγRIIIA.158V, CHO.FcγRIIB, or CHO.WT suspensions were prepared in FACS buffer (DPBS containing (Gibco, 14190-094) containing 0.5% BSA (Sigma, A7906)) and seeded at 1×10⁵ cell/well in 100 μl in round bottomed 96-well plates (VWR, 734-1797). […] The washed cells were resuspended in the diluted antibody mixture, incubated at 4° C. for 30 minutes, and then washed once in FACS buffer. […] The geometric mean fluorescence intensity (GMFI) values were plotted vs the log concentration of antibody and the resulting curves were fitted using the log (agonist) vs response equation in GraphPad Prism.

[6] = biological target: T4, FcgRIIA 131H on CHO cells (UniProt P12318 34-317, limits assumed); experiment: flow cytometry on CHO cells over-expressing FcγRIIA 131H, anti-human IgG AF-488 detection
T4 construct: whole, on cells; also called CHO.FcγRIIA.131H
T4 sequence (looked up): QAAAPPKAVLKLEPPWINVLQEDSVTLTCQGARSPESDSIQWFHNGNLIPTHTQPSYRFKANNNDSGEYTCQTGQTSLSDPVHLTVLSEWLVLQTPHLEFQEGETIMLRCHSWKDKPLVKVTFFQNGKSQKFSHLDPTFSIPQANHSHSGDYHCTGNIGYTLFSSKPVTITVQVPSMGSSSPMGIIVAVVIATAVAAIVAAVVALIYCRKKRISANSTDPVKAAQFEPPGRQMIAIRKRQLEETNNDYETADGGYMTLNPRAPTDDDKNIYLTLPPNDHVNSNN
Text: as §3, §4

[7] = biological target: T5, FcgRIIIA 158F on CHO cells (UniProt P08637 17-254, limits assumed); experiment: flow cytometry on CHO cells over-expressing FcγRIIIA 158F, anti-human IgG AF-488 detection
T5 construct: whole, on cells; also called CHO.FcγRIIIA.158F
Text: as §3, §4

[8] = biological target: T6, FcgRIIIA 158V on CHO cells (UniProt P08637 17-254); experiment: flow cytometry on CHO cells over-expressing FcγRIIIA 158V, anti-human IgG AF-488 detection
T6 construct: whole, on cells; also called CHO.FcγRIIIA.158V
Text: as §3, §4

[9] = biological target: human PD-L1, cell-surface (human, UniProt Q9NZQ7 19-290); experiment: cell-based or functional assay
[10] = biological target: T7, hPD-L1-rCD4-His (human); experiment: SPR, culture supernatants
T7 construct: also called human PD-L1-rCD4-His; hu-PD-L1-rCD4-His

[11] = biological target: T7, hPD-L1-rCD4-His; experiment: SPR
[12] = biological target: T8, Cyno PD-L1-rCD4-His (cynomolgus, UniProt Q9NZQ7 19-238 (human entry)); experiment: SPR
T8 construct: also called cynomolgus PD-L1-rCD4-His; not shown: rat CD4 domains 3 and 4 and His tag
T8 sequence (Q9NZQ7 other isoform, or with tags, fused parts or gaps): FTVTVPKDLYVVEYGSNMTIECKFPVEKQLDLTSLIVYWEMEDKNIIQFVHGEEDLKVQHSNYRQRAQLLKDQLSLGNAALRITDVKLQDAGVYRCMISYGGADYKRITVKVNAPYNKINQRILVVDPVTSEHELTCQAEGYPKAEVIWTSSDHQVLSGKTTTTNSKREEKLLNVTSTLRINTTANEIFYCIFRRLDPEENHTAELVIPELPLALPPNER

T7 sequence (chain, as listed by the source): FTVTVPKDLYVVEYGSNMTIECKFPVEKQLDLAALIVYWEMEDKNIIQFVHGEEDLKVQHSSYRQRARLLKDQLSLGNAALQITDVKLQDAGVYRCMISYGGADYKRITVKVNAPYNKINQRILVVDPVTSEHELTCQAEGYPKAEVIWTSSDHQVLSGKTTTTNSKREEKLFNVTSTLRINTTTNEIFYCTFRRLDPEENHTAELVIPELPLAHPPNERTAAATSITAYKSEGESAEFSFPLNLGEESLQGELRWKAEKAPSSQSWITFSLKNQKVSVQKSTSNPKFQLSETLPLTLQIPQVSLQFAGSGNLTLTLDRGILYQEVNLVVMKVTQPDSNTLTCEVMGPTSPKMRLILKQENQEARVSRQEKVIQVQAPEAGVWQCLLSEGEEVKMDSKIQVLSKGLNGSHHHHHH
Chain of mouse CD137, cell-surface (P20334 24-256): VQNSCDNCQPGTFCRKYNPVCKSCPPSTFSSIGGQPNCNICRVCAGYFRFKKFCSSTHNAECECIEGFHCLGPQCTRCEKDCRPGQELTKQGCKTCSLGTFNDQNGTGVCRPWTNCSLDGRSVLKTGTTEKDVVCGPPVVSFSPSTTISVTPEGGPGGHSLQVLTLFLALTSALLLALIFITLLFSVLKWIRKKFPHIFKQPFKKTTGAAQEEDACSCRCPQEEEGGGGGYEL
T5 sequence (P08637 17-254 limits assumed): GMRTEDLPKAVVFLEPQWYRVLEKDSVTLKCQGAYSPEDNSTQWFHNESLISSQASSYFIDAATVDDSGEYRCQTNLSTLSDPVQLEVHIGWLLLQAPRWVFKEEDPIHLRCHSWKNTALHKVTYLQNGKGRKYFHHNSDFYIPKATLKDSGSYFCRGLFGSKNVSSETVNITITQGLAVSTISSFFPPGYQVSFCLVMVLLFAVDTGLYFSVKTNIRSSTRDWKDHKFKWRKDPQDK
Chain of human PD-L1, cell-surface (Q9NZQ7 19-290): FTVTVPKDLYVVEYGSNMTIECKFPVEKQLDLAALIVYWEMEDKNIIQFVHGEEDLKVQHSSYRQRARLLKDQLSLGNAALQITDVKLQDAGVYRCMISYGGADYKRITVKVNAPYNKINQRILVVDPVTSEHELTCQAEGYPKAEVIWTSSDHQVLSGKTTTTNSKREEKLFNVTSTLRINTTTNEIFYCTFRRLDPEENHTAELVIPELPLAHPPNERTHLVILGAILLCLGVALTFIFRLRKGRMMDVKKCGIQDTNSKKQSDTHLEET
T6 sequence (P08637 17-254 F176V limits assumed): as the sequence (P08637 17-254 limits assumed) above, with F160V counted along it

Emax (pg/ml), mIFN-γ release, OT-1 CD8+ T cell activation assay (EC50 n/a) [1]: 3850 pg/mL
B1: FS22m-063-AA/HeID1.3 (bispecific antibody, human IgG1, kappa, L234A L235A)
heavy: QVQLQESGPGLVRPSQTLSLTCTVSGSTFSGYGVNWVRQPPGRGLEWIGMIWGDGNTDYNSALKSRVTMLVDTSKNQFSLRLSSVTAADTAVYYCARERDYRLDYWGQGSLVTVSSASTKGPSVFPLAPSSKSTSGGTAALGCLVKDYFPEPVTVSWNSGALTSGVHTFPAVLQSSGLYSLSSVVTVPSSSLGTQTYICNVNHKPSNTKVDKKVEPKSCDKTHTCPPCPAPEAAGGPSVFLFPPKPKDTLMISRTPEVTCVVVDVSHEDPEVKFNWYVDGVEVHNAKTKPREEQYNSTYRVVSVLTVLHQDWLNGKEYKCKVSNKALPAPIEKTISKAKGQPREPQVYTLPPSRDEPYWSYVSLTCLVKGFYPSDIAVEWESNGQPENNYKTTPPVLDSDGSFFLYSKLTVMNYRWELGNVFSCSVMHEALHNHYTQKSLSLSPG
light: DIQMTQSPASLSASVGETVTITCRASGNIHNYLAWYQQKQGKSPQLLVYNAKTLADGVPSRFSGSGSGTQYSLKINSLQPEDFGSYYCQHFWSTPRTFGGGTKLEIKRTVAAPSVFIFPPSDEQLKSGTASVVCLLNNFYPREAKVQWKVDNALQSGNSQESVTEQDSKDSTYSLSSTLTLSKADYEKHKVYACEVTHQGLSSPVTKSFNRGEC

binding result [5]: binds
binding result [6]: binds
binding result [7]: binds
binding result [8]: binds
B3: G1/4420 (antibody, human IgG1, kappa)
heavy: not shown
light: DVVMTQTPLSLPVSLGDQASISCRSSQSLVHSNGNTYLRWYLQKPGQSPKVLIYKVSNRFSGVPDRFSGSGSGTDFTLKISRVEAEDLGVYFCSQSTHVPWTFGGGTKLEIKRTVAAPSVFIFPPSDEQLKSGTASVVCLLNNFYPREAKVQWKVDNALQSGNSQESVTEQDSKDSTYSLSSTLTLSKADYEKHKVYACEVTHQGLSSPVTKSFNRGEC

binding result [10]: binds
B5: G1/929_01_A11 (antibody, IgG1, V domains shown)
VH: EVQLVQSGAEVKRPGASVKVSCKASGYTFTSYGISWVRQAPGQGLEWMGWISAYSGGTNYAQKLQGRVTMTTDTSTSTAYMELRSLRSDDTAVYYCARDLFPTIFGVSYYYYWGQGTLVTVSS
VL: DIQMTQSPSTLSASVGDRVTITCRASQSISGRLAWYQQKPGKAPNLLIYEASNLESGVPSRFSGSGSGTEFTLTISSLQPEDFATYYCQQSYSWPRTFGQGTKVEIK
notes: IgG1 without LALA

binding result [10]: binds
B7: G1/929_01_A08 (antibody, IgG1, V domains shown)
VH: B5 VH
VL: DIQMTQSPSTLSASVGDRVTITCRASQSISGRLAWYQQKPGKAPNLLIYEASNLESGVPSRFSGSGSGTEFTLTISSLQPEDFATYYCQQSYSTPRVTFGQGTKVEIK
notes: IgG1 without LALA; SGGT variant of G1/894_08_E05, became G1-AA/E05v2 with LALA

More lines, now with the values behind:

B2: FS22-172-003-AA/HeID1.3 (bispecific antibody, human IgG1, kappa, L234A L235A)
heavy: QVQLQESGPGLVRPSQTLSLTCTVSGSTFSGYGVNWVRQPPGRGLEWIGMIWGDGNTDYNSALKSRVTMLVDTSKNQFSLRLSSVTAADTAVYYCARERDYRLDYWGQGSLVTVSSASTKGPSVFPLAPSSKSTSGGTAALGCLVKDYFPEPVTVSWNSGALTSGVHTFPAVLQSSGLYSLSSVVTVPSSSLGTQTYICNVNHKPSNTKVDKKVEPKSCDKTHTCPPCPAPEAAGGPSVFLFPPKPKDTLMISRTPEVTCVVVDVSHEDPEVKFNWYVDGVEVHNAKTKPREEQYNSTYRVVSVLTVLHQDWLNGKEYKCKVSNKALPAPIEKTISKAKGQPREPQVYTLPPSRDELPYIIPPYNQVSLTCLVKGFYPSDIAVEWESNGQPENNYKTTPPVLDSDGSFFLYSKLTVGADRWLEGNVFSCSVMHEALHNHYTQKSLSLSPG
light: B1 light
notes: mock mAb^2 with LALA
Emax (pg/ml), IFN-γ release, human MLR (EC50 N/A) [2]: 3570 pg/mL
EC50 [3]: 9.09 nM
EC50 [4]: 6.25 nM

B4: G1/280_02_G02 (antibody, human IgG1, V domains shown)
VH: B5 VH with S55N, G57N
VL: QSALTQPASVSGSPGQSITISCTGTSSDVGGYNSVSWYQQFPGKAPKLMIFEVTNRPSGVSDRFSGSKSDNTASLTISGLQAEDEAEYYCSSFKRGSTLVVFG
EC50, luciferase, Jurkat-NFAT PD-1 / PD-L1 cell co-culture assay [9]: 4.2 nM

B6: G1/929_01_A02 (antibody, IgG1, V domains shown)
VH: B5 VH
VL: DIQMTQSPSTLSASVRDRVIITCRASQSIGNRLAWYQHKPGKAPKLLIYEASTSETGVPSRFSGSGSGTDFTLTISSLQPEDFATYYCQQSYSTPYTFGQGTKLEIK
notes: IgG1 without LALA
fold lower affinity than G1-AA/E12v2 [11]: > 10 fold
fold lower affinity than G1-AA/E12v2 [12]: > 10 fold
